The target in this assay is beta-2-microglobulin (Homo sapiens, UniProt P61769). As to the kind of experiment: SPR. (In general: Surface plasmon resonance follows binding to a sensor surface in real time, without labels.)

From PMC7831021 (2021) come the findings set out here.

Bridges are numbered along the chain shown (N, C = ends). Where no end group is shown, it is not given here.

Sequence of beta-2-microglobulin (P61769 22-119): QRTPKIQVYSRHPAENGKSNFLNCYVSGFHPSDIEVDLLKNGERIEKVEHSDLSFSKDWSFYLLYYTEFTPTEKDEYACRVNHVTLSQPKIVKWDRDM

By Kd is commonly meant the free concentration of one partner at which half of the binding sites on the other are occupied at equilibrium, for simple one-to-one binding. A low value points to higher affinity. In turn, CFETAWRQNEWC (disulfide 1-12 (inferred)) [pep331] showed a Kd of 300 µM.
